Target: T1, TIM-3/Galectin-9 interaction (Homo sapiens, UniProt Q8TDQ0)
T1 construct: TIM-3 fusion protein (R&D Systems) was coated on a standard MesoScale 96 well plate; purchased R&D Systems
Test: plate-based (MesoScale) TIM-3/Galectin-9 competition assay
Format: binding
Details: TIM-3 fusion protein coated at 2 μg/ml; labeled Galectin-9 100 nM; serial dilutions
Description: TIM-3 fusion protein (R&D Systems) was coated on a standard MesoScale 96 well plate (Meso Scale Discovery) at 2 μg/ml in PBS (Phosphate Buffered Saline) and incubated for six hours at room temperature. The plate was washed three times with PBST (PBS buffer containing 0.05% Tween-20) and blocked with PBS containing 5% Probumin (Millipore) overnight at 4° C. After incubation, the plate was washed three times with PBST and unlabeled antibody (F38-2E2 (BioLegend); MBG453; MBG453 F(ab′)2; MBG453 F(ab); or control recombinant human Galectin-9 protein) diluted in Assay Diluent (2% Probumin, 0.1% Tween-20, 0.1% Triton X-100 (Sigma) with 10% StabilGuard (SurModics)), was added in serial dilutions to the plate and incubated for one hour on an orbital shaker at room temperature. The plate was then washed three times with PBST, and Galectin-9 labeled with MSD SULFOTag (Meso Scale Discovery) as per manufacturer's instructions, diluted in Assay Diluent to 100 nM, was added to the plate for one hour at room temperature on an orbital shaker. The plate was again washed three times with PBST, and Read Buffer T (1×) was added to the plate. The plate was read on MA600 Imager, and competition was assessed as a measure of the ability of the antibody to block Ga19-SULFOTag signal to TIM-3 receptor.

B1: control Galectin-9 protein: control recombinant human Galectin-9 protein, unlabeled (protein)
chain: AFSGSQAPYLSPAVPFSGTIQGGLQDGLQITVNGTVLSSSGTRFAVNFQTGFSGNDIAFHFNPRFEDGGYVVCNTRQNGSWGPEERKTHMPFQKGMPFDLCFLVQSSDFKVMVNGILFVQYFHRVPFHRVDTISVNGSVQLSYISFQPPGVWPANPAPITQTVIHTVQSAPGQMFSTPAIPPMMYPHPAYPMPFITTILGGLYPSKSILLSGTVLPSAQRFHINLCSGNHIAFHLNPRFDENAVVRNTQIDNSWGSEERSLPRKMPFVRGQSFSVWILCEAHCLKVAVDGQHLFEYYHRLRNLPTINRLEVGGDIQLTHVQT
In the case of B1, the “ability to block Gal9-SULFOTag signal to TIM-3 receptor (interaction between TIM-3 and Galectin-9)” value is reported as “did not”.

Source: US20240301053A1, “COMBINATION THERAPIES WITH VENETOCLAX AND TIM-3 INHIBITORS” (Novartis AG, priority 2019, published 2024)
